Measured values published in US20200317768A1 (published 2020).
Positions count from the first letter of the chain named. Names and notes keep the numbering of the source.

T1: human FcγRIIaH extracellular domain, C-terminal His-tag (human, UniProt P12318 34-217)
T1 construct: also called human FcγRIIa (type H); FcgRIIaH
T1 sequence: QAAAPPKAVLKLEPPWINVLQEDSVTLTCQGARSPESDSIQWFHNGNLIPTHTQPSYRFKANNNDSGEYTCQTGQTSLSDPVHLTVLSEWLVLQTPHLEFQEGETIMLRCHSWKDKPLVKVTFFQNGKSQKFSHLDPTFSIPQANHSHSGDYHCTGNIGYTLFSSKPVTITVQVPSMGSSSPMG

T2: human FcγRIIb constitutively expressed on MDCK cells (human, UniProt P31994 43-310)
T2 sequence (looked up): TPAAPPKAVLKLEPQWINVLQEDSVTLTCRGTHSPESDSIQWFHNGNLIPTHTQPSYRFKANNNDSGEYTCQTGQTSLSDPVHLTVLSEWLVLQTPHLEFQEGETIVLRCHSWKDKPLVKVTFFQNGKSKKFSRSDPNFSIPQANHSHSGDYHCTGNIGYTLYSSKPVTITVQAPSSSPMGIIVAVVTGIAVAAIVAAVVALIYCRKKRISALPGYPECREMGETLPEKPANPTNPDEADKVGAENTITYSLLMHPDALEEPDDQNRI

T3: soluble mouse FcγRII, His-tagged (mouse, UniProt P08101 30-210, limits assumed)
T3 construct: Captured on the chip by an anti-His antibody
T3 sequence (looked up): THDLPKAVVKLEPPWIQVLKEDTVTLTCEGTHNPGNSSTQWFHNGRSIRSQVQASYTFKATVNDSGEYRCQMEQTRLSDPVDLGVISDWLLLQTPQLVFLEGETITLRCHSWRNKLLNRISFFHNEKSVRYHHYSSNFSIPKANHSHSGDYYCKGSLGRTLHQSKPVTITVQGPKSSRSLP

B1: GpH7-B3 variant G237Y/GpL16-k0 (antibody, human IgG1, kappa)
heavy: not shown
light: DIVMTQSPLSLPVTPGEPASISCQASESLVHSNRNTYLHWYLQKPGQSPQLLIYKVSNRFSGVPDRFSGSGSGTDFTLKISRVEAEDVGVYYCSQNTHVPPTFGQGTKVEIERTVAAPSVFIFPPSDEQLKSGTASVVCLLNNFYPREAKVQWKVDNALQSGNSQESVTEQDSKDSTYSLSSTLTLSKADYEKHKVYACEVTHQGLSSPVTKSFNRGEC
B2: GpH7-B3 variant N325I/GpL16-k0 (antibody, human IgG1, kappa)
heavy: not shown
light: B1 light
B3: GpH7-B3 variant P238M/GpL16-k0 (antibody, human IgG1, kappa)
heavy: not shown
light: B1 light
B4: M103205H795-P1533m/M103202L889-SK1 (antibody, human IgG1, kappa)
heavy: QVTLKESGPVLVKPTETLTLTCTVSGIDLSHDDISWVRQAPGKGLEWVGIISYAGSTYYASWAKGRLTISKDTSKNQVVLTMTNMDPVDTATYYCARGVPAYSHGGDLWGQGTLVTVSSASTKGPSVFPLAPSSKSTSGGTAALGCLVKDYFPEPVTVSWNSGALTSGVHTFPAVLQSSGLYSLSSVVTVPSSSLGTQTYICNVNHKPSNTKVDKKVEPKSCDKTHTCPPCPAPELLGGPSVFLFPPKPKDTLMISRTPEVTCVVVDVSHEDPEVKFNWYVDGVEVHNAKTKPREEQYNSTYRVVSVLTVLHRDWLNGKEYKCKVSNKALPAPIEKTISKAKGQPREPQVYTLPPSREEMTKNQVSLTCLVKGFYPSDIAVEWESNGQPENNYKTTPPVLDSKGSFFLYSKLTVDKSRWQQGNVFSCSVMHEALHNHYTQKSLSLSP
light: DIVMTQSPATLSLSPGERATLSCTSSQSVYHANWLSWFQQKPGQPPKLLIYWASTLAYGVPSRFSGSGSGTDFTLTISSLQPEDAATYYCAGGYGGGRYAFGQGTKVEIKRTVAAPSVFIFPPSDEQLKSGTASVVCLLNNFYPREAKVQWKVDNALQSGNSQESVTEQDSKDSTYSLSSTLTLSKADYEKHKVYACEVTHQGLSSPVTKSFNRGEC
B5: M103205H795-P1552m/M103202L889-SK1 (antibody, human IgG1, kappa)
heavy: QVTLKESGPVLVKPTETLTLTCTVSGIDLSHDDISWVRQAPGKGLEWVGIISYAGSTYYASWAKGRLTISKDTSKNQVVLTMTNMDPVDTATYYCARGVPAYSHGGDLWGQGTLVTVSSASTKGPSVFPLAPSSKSTSGGTAALGCLVKDYFPEPVTVSWNSGALTSGVHTFPAVLQSSGLYSLSSVVTVPSSSLGTQTYICNVNHKPSNTKVDKKVEPKSCDKTHTCPPCPAPELLGGPSVFLFPPKPKDTLMISRTPEVTCVVVDVSHEDPEVKFNWYVDGVEVHNAKTKPREEQYNSTYRVVSVLTVLHQDWLNGKEYKCKVSNKALPAPIEKTISKAKGQPREPQVYTLPPSREEMTKNQVSLTCLVKGFYPSDIAVEWESNRQPENNYKTTPPVLDSRGSFFLYSKLTVKKSRWQQGNVFSCSVMHEALHNHYTQKSLSLSP
light: B4 light
B6: M103205H795-P1551m/M103202L889-SK1 (antibody, human IgG1, kappa)
heavy: B5 heavy with Q313R, R387G, E390R, R403D, G404R, K415D
light: B4 light
B7: M103205H795-P1550m/M103202L889-SK1 (antibody, human IgG1, kappa)
heavy: B5 heavy with Q313R, R387G, E390R, K415D
light: B4 light
B8: M103205H795-P1545m/M103202L889-SK1 (antibody, human IgG1, kappa)
heavy: B5 heavy with Q313R, R387G, R403K
light: B4 light
B9: M103205H795-P1541m/M103202L889-SK1 (antibody, human IgG1, kappa)
heavy: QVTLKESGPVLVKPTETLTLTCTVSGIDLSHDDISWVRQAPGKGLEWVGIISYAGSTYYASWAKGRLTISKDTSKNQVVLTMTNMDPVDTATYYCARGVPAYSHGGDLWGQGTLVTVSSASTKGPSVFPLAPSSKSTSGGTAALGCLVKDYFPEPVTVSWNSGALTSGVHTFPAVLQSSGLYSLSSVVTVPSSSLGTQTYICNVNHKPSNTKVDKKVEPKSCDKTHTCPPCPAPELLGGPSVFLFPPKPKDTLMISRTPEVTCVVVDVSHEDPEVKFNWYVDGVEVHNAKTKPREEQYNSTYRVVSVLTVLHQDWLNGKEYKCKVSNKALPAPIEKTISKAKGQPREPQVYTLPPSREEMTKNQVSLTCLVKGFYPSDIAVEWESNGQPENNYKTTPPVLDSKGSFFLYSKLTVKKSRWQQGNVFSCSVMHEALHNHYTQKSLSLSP
light: B4 light
B10: M103205H795-P1534m/M103202L889-SK1 (antibody, human IgG1, kappa)
heavy: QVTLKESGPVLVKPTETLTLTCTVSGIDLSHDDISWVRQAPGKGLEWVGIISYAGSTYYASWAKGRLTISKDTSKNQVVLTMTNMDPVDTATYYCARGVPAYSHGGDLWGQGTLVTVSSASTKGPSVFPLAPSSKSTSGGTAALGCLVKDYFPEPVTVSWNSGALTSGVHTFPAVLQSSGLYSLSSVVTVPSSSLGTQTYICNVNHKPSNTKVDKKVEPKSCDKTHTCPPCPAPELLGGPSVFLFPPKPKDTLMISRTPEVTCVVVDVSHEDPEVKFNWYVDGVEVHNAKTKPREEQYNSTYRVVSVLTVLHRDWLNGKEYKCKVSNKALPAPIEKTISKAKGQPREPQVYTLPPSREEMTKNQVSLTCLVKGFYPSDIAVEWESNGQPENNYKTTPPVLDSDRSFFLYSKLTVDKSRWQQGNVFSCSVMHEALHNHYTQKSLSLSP
light: B4 light
B11: M103205H795-P1549m/M103202L889-SK1 (antibody, human IgG1, kappa)
heavy: B5 heavy with Q313R, R403D, G404R, K415D
light: B4 light
B12: M103205H795-P1535m/M103202L889-SK1 (antibody, human IgG1, kappa)
heavy: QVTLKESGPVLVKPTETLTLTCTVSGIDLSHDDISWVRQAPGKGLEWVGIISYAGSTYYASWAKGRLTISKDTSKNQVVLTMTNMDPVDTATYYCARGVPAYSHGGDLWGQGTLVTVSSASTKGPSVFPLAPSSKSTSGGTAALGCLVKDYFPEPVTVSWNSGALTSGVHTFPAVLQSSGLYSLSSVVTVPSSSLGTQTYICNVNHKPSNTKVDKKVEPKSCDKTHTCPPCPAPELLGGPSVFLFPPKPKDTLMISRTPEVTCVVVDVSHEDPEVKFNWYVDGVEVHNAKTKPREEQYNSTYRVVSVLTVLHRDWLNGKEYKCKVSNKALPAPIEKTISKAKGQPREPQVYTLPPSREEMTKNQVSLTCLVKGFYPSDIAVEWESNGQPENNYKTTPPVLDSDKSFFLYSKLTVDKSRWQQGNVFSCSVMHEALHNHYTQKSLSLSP
light: B4 light
B13: M103205H795-P1538m/M103202L889-SK1 (antibody, human IgG1, kappa)
heavy: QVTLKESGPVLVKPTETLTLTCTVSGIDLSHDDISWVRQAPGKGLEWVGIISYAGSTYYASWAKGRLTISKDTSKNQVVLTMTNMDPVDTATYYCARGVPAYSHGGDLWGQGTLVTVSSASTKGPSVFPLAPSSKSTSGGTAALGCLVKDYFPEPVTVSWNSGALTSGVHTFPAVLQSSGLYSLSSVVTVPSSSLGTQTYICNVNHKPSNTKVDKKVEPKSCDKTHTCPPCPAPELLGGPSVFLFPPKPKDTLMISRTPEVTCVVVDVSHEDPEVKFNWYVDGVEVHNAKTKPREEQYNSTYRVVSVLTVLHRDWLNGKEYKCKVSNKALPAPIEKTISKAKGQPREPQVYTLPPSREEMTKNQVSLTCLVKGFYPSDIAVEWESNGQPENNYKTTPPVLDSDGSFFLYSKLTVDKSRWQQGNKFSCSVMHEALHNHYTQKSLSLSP
light: B4 light
B14: M103205H795-SG141/M103202L889-SK1 (antibody, human IgG1, kappa)
heavy: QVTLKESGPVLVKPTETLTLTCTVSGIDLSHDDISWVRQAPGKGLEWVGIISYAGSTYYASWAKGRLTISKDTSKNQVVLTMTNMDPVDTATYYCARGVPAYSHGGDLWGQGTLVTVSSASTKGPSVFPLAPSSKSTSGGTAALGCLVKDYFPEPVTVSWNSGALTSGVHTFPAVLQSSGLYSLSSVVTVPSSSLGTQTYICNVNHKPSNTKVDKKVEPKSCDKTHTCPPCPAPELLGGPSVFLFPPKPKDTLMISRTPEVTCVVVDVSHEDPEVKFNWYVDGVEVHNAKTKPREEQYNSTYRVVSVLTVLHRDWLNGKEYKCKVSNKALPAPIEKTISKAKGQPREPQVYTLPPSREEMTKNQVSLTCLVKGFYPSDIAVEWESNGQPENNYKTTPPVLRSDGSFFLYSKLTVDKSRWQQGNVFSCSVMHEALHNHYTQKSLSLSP
light: B4 light
B15: M103205H795-P1542m/M103202L889-SK1 (antibody, human IgG1, kappa)
heavy: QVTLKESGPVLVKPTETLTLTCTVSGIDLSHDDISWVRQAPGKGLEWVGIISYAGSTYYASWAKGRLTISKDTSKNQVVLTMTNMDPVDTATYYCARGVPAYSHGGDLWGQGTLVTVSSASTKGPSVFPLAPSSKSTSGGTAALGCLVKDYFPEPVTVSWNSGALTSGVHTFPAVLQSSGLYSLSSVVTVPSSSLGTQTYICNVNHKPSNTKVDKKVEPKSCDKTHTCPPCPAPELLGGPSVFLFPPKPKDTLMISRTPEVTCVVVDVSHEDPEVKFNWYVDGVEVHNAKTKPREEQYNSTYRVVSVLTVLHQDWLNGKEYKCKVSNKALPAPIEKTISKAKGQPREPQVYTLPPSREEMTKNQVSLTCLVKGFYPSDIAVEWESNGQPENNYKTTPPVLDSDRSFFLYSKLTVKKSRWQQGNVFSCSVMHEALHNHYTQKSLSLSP
light: B4 light
B16: M103205H795-P1548m/M103202L889-SK1 (antibody, human IgG1, kappa)
heavy: B5 heavy with Q313R, K415D
light: B4 light
B17: M103205H795-P1537m/M103202L889-SK1 (antibody, human IgG1, kappa)
heavy: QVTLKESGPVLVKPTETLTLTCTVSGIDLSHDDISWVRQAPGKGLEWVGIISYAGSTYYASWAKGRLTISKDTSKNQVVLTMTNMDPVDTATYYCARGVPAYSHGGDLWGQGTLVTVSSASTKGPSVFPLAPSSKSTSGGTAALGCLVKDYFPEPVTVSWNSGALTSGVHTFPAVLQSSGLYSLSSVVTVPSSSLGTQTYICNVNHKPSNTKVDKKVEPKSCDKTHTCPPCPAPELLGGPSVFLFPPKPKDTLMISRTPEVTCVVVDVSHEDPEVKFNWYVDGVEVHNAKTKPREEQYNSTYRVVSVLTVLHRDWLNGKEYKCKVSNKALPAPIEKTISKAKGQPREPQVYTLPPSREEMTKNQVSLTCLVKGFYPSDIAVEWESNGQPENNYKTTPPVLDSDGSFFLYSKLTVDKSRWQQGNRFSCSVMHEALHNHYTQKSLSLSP
light: B4 light
B18: M103205H795-P1543m/M103202L889-SK1 (antibody, human IgG1, kappa)
heavy: not shown
light: B4 light
B19: M103205H795-P1547m/M103202L889-SK1 (antibody, human IgG1, kappa)
heavy: B5 heavy with Q313R, R387G, R403D, G404K
light: B4 light
B20: M103205H795-P1544m/M103202L889-SK1 (antibody, human IgG1, kappa)
heavy: B5 heavy with Q313R, R387G
light: B4 light
B21: M103205H795-P1536m/M103202L889-SK1 (antibody, human IgG1, kappa)
heavy: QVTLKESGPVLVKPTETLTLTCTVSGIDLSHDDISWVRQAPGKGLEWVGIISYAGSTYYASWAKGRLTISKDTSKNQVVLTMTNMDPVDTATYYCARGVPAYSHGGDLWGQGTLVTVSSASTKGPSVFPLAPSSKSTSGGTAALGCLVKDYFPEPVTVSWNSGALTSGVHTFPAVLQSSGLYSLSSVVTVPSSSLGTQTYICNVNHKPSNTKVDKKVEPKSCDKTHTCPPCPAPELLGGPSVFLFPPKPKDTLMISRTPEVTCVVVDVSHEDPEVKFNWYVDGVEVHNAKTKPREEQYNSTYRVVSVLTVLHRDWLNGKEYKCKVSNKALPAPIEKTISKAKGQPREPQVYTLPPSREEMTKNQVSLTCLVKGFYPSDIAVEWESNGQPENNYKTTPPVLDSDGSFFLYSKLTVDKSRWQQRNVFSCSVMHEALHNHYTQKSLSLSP
light: B4 light
B22: M103205H795-P1546m/M103202L889-SK1 (antibody, human IgG1, kappa)
heavy: B5 heavy with Q313R, R387G, R403D, G404R
light: B4 light
B23: M103205H795-P1553m/M103202L889-SK1 (antibody, human IgG1, kappa)
heavy: B5 heavy with R403D, G404R
light: B4 light
B24: M103205H795-P1540m/M103202L889-SK1 (antibody, human IgG1, kappa)
heavy: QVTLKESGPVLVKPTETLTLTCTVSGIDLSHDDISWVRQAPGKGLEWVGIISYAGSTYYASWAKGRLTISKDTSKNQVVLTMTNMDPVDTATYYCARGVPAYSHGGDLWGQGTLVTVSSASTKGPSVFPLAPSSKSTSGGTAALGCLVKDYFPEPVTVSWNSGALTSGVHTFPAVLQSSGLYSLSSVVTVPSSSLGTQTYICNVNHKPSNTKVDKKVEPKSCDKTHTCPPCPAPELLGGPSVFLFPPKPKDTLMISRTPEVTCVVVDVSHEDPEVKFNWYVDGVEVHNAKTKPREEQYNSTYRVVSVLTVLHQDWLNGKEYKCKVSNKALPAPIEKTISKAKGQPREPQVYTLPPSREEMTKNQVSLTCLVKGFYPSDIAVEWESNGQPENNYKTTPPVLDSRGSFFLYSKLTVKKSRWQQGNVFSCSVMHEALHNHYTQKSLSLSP
light: B4 light
B25: M103205H795-P1539m/M103202L889-SK1 (antibody, human IgG1, kappa)
heavy: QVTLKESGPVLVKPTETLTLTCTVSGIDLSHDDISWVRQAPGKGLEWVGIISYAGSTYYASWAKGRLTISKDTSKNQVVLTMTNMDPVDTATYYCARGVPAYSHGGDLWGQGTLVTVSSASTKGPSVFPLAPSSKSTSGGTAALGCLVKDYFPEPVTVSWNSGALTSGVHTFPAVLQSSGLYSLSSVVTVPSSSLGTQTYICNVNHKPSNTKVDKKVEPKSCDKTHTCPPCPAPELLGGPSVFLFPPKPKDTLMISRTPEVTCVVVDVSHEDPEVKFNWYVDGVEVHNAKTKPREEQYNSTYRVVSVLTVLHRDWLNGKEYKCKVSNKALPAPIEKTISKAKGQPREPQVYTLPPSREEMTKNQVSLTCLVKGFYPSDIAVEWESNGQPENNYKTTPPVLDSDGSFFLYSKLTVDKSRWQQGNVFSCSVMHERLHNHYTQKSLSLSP
light: B4 light
B26: M103205H795-P1555m/M103202L889-SK1 (antibody, human IgG1, kappa)
heavy: B5 heavy with R387G, E390R, R403D, G404R
light: B4 light

Each binder was assayed against T1, human FcγRIIaH extracellular domain, … (assay: SPR 25C; FcgR bound per captured antibody, relative to parent B3).
Protocol: These Fc variants are referred to as B3 variants. B3 variants were expressed and the binding of protein-A purified antibodies to each FcγR (FcγRIIa type H. FcγRIIa type R, FcγRIIb, and FcγRIIIaF) was comprehensively evaluated as follows. Analysis of interaction between each altered antibody and the Fcγ receptor prepared as mentioned above was carried out using BIACORE® T100 (GE Healthcare), BIACORE® T200 (GE Healthcare), BIACORE® A100, or BIACORE® 4000. HBS-EP+(GE Healthcare) was used as the running buffer, and the measurement temperature was set to 25° C. Chips produced by immobilizing Protein A (Thermo Scientific), Protein A/G (Thermo Scientific), or Protein L (ACTIGEN or BioVision) by the amine coupling method to a Series S sensor Chip CM5 or CM4 (GE Healthcare) were used. After capturing of antibodies of interest onto these sensor chips, an Fcγ receptor diluted with the running buffer was allowed to interact, the amount bound to an antibody was measured. However, since the amount of Fcγ receptor bound depends on the amount of the captured antibodies, the amount of Fcγ receptor bound was divided by the amount of each antibody captured to obtain corrected values, and these values were compared. Furthermore, antibodies captured onto the chips were washed by 10 mM glycine-HCl pH1.5, and the chips were regenerated and used repeatedly. […] The value obtained by multiplying this value by 100 was used as an indicator of the relative FcγR-binding activity of each variant.

| Binder | Binding to human FcgRs (parent B3 = 100) |
| --- | --- |
| B1 | 77 |
| B2 | 76 |
| B3 | 86 |

Each binder was assayed against T2, human FcγRIIb constitutively expressed … (assay: cell-based or functional assay).

| Binder | celluar uptake |
| --- | --- |
| B4 | 3.52 relative to SG1 (=1.00) |
| B5 | 4.44 relative to SG1 (=1.00) |
| B6 | 2.91 relative to SG1 (=1.00) |
| B7 | 6.43 relative to SG1 (=1.00) |
| B8 | 7.73 relative to SG1 (=1.00) |
| B9 | 7.17 relative to SG1 (=1.00) |
| B10 | 3.12 relative to SG1 (=1.00) |
| B11 | 2.03 relative to SG1 (=1.00) |
| B12 | 2.49 relative to SG1 (=1.00) |
| B13 | 1.84 relative to SG1 (=1.00) |
| B14 | 4.42 relative to SG1 (=1.00) |
| B15 | 3.32 relative to SG1 (=1.00) |
| B16 | 2.3 relative to SG1 (=1.00) |
| B17 | 2.77 relative to SG1 (=1.00) |
| B18 | 3.7 relative to SG1 (=1.00) |
| B19 | 4.85 relative to SG1 (=1.00) |
| B20 | 7.66 relative to SG1 (=1.00) |
| B21 | 2.05 relative to SG1 (=1.00) |
| B22 | 5.1 relative to SG1 (=1.00) |
| B23 | 2.86 relative to SG1 (=1.00) |
| B24 | 7.64 relative to SG1 (=1.00) |
| B25 | 3.2 relative to SG1 (=1.00) |
| B26 | 3.71 relative to SG1 (=1.00) |

These binders were tested against T3, soluble mouse FcγRII, His-tagged (assay: SPR, mouse FcgRII-His captured, antigen-antibody complex injected, pH7.4, 25C).
Protocol: Regarding the produced Fc region variant-containing antibodies, binding assays between soluble mouse FcγRII and antigen-antibody complexes were performed using BIACORE® T200 (GE Healthcare). Soluble mouse FcγRII was produced in the form of a His-tagged molecule by a method known to those skilled in the art. An appropriate amount of an anti-His antibody was fixed onto Sensor chip CM5 (GE Healthcare) by the amine coupling method using a His capture kit (GE Healthcare) to capture mouse FcγRII. Next, an antibody-antigen complex and a running buffer (as a reference solution) were injected, and interaction was allowed to take place with the mouse FcγRII captured onto the sensor chip. 20 mM N-(2-Acetamido)-2-aminoethanesulfonic acid, 150 mM NaCl, 1.2 mM CaCl₂, and 0.05% (w/v) TWEEN, 20 at pH7.4 was used as the running buffer, and the respective buffer was also used to dilute the soluble mouse FcγRII. To regenerate the sensor chip, 10 mM glycine-HCl at pH1.5 was used. All measurements were carried out at 25° C. […] To calculate the parameters, the BIACORE® T100 Evaluation Software (GE Healthcare) was used.

| Binder | biacore IC binding |
| --- | --- |
| B4 | 1.18 relative to SG1 (=1.00) |
| B5 | 2.19 relative to SG1 (=1.00) |
| B6 | 1.33 relative to SG1 (=1.00) |
| B7 | 1.63 relative to SG1 (=1.00) |
| B8 | 1.8 relative to SG1 (=1.00) |
| B9 | 1.57 relative to SG1 (=1.00) |
| B10 | 1.12 relative to SG1 (=1.00) |
| B11 | 1.22 relative to SG1 (=1.00) |
| B12 | 1.11 relative to SG1 (=1.00) |
| B13 | 1.11 relative to SG1 (=1.00) |
| B14 | 1.64 relative to SG1 (=1.00) |
| B15 | 1.21 relative to SG1 (=1.00) |
| B16 | 1.37 relative to SG1 (=1.00) |
| B17 | 1.32 relative to SG1 (=1.00) |
| B18 | 1.19 relative to SG1 (=1.00) |
| B19 | 1.33 relative to SG1 (=1.00) |
| B20 | 2.04 relative to SG1 (=1.00) |
| B21 | 1.16 relative to SG1 (=1.00) |
| B22 | 1.41 relative to SG1 (=1.00) |
| B23 | 1.47 relative to SG1 (=1.00) |
| B24 | 1.73 relative to SG1 (=1.00) |
| B25 | 0.9 relative to SG1 (=1.00) |
| B26 | 2.01 relative to SG1 (=1.00) |
